Results as given in patent US20170368132A1 (published 2017).

What was measured:
[1] = target: T1, S. cerevisiae Rad51 (S. cerevisiae, UniProt P25454 1-400, limits assumed); assay: yeast two-hybrid, growth on -ADE -HIS
T1 construct: Y2H fusion in yeast
T1 sequence (looked up): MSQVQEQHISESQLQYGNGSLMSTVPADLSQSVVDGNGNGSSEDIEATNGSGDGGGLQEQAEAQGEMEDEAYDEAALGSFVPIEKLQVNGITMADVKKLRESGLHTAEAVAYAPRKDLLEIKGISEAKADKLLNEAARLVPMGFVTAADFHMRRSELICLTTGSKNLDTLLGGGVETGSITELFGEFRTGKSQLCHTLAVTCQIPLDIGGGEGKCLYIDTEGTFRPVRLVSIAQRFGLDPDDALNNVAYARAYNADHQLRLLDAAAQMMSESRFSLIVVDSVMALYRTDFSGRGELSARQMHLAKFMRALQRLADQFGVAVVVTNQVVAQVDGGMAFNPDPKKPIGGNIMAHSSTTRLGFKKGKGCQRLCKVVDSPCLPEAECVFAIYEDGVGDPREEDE
Protocol: (§1) RAD51-binding peptides were tested for ability to bind RAD51 of several different species using a “conventional” Y2H assay, where interaction between the two-hybrid pair drove expression of ADE2 and HIS genes. In this Y2H assay the two-hybrid pair was RAD51 and the compound 5 peptide sequence (SEQ ID NO.:5), so that cells having the interaction would survive (+) and cells not having the interaction would die (−) on selective media (−ADE, −HIS).

[2] = target: T2, G. gallus Rad51 (G. gallus, UniProt P37383 1-339, limits assumed); assay: yeast two-hybrid, growth on -ADE -HIS
T2 construct: Y2H fusion in yeast
T2 sequence (looked up): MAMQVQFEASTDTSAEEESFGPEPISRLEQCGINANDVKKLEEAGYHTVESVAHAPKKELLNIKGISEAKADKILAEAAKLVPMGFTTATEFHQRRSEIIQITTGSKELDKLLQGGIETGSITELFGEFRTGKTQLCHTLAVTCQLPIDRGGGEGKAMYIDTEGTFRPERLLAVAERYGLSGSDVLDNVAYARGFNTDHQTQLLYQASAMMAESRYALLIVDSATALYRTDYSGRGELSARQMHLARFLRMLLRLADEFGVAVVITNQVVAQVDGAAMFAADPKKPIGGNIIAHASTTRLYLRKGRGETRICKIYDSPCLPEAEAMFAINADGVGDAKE
Protocol: as §1

[3] = target: T3, S. pombe Rad51 (S. pombe, UniProt P36601 1-365, limits assumed); assay: yeast two-hybrid, growth on -ADE -HIS
T3 construct: Y2H fusion in yeast
T3 sequence (looked up): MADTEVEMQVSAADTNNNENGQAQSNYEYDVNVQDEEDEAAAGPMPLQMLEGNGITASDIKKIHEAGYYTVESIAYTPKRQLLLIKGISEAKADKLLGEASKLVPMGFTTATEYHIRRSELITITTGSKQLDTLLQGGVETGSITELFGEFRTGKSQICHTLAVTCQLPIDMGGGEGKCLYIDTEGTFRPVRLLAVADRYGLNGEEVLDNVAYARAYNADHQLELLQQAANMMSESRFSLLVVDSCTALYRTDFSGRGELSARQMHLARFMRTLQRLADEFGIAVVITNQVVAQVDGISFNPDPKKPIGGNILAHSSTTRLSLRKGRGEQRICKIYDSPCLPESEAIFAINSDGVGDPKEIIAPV
Protocol: as §1

[4] = target: T4, S. cerevisiae Rad51 (1-278) + H. sapiens Rad51 (218-339) (S. cerevisiae; H. sapiens, UniProt P25454 1-278); assay: yeast two-hybrid, RAD51 hybrid construct
T4 construct: range 1-278; Y2H fusion in yeast; also called cerevisiae-sapiens hybrid construct of RAD51
T4 sequence: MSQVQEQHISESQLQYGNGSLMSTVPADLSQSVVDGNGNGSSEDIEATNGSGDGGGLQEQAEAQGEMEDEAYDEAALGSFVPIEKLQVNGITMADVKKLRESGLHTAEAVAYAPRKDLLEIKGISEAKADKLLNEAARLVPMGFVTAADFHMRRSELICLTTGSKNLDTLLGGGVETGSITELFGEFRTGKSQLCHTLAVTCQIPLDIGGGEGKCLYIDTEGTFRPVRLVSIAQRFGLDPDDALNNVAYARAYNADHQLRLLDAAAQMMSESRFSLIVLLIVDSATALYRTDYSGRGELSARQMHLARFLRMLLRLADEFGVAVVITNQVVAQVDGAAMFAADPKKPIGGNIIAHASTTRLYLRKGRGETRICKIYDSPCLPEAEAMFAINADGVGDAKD

B1: compound 5 peptide sequence (SEQ ID NO.:5) (peptide)
peptide: KRRRRRRRKRLGVRLRVSRML
binding result [1]: no binding
binding result [2]: binds
binding result [3]: binds
binding result [4]: no binding
